Values quoted from earlier work, collected in PMC5371862.

Tests used:
[1] = molecular target: muscarinic acetylcholine receptor M1 (Homo sapiens) (UniProt P11229)
[2] = molecular target: muscarinic acetylcholine receptor M4 (Homo sapiens) (UniProt P08173)
[3] = molecular target: edema factor (Bacillus anthracis) (UniProt P40136)
[4] = molecular target: lethal factor (Bacillus anthracis) (UniProt P15917)
P-type calcium channel = P-type calcium channel (UniProt O00555)

Sequence of protective antigen PA63 oligomer PA63 (P13423 197-764): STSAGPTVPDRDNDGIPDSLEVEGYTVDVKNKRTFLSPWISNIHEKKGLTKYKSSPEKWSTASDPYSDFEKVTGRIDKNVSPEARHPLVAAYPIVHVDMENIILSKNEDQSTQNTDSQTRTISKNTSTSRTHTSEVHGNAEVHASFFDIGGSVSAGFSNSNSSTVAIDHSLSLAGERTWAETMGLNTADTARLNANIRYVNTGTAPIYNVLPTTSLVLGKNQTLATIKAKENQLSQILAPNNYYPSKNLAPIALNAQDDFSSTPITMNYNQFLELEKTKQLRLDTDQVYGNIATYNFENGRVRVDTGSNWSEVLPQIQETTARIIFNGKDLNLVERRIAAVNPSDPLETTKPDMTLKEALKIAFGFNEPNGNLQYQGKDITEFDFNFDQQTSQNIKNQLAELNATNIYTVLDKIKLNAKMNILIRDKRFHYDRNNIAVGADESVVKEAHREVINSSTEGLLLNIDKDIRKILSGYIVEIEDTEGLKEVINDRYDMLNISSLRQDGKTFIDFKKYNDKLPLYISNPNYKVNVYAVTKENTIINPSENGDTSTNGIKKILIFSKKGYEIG
Sequence of muscarinic acetylcholine receptor M1 (Homo sapiens) (P11229 whole entry): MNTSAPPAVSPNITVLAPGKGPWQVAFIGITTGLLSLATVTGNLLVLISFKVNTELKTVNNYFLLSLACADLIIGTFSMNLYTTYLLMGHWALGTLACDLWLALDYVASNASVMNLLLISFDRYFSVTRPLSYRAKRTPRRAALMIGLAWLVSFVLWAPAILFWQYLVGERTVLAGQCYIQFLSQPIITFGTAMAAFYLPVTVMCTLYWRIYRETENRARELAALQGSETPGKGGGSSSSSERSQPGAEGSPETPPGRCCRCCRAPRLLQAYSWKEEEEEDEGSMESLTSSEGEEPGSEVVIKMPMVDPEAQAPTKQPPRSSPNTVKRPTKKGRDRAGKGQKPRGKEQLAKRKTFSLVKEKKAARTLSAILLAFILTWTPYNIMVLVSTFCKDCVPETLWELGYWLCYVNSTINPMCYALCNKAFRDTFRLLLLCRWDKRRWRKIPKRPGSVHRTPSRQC
Sequence of edema factor (Bacillus anthracis) (P40136 34-800): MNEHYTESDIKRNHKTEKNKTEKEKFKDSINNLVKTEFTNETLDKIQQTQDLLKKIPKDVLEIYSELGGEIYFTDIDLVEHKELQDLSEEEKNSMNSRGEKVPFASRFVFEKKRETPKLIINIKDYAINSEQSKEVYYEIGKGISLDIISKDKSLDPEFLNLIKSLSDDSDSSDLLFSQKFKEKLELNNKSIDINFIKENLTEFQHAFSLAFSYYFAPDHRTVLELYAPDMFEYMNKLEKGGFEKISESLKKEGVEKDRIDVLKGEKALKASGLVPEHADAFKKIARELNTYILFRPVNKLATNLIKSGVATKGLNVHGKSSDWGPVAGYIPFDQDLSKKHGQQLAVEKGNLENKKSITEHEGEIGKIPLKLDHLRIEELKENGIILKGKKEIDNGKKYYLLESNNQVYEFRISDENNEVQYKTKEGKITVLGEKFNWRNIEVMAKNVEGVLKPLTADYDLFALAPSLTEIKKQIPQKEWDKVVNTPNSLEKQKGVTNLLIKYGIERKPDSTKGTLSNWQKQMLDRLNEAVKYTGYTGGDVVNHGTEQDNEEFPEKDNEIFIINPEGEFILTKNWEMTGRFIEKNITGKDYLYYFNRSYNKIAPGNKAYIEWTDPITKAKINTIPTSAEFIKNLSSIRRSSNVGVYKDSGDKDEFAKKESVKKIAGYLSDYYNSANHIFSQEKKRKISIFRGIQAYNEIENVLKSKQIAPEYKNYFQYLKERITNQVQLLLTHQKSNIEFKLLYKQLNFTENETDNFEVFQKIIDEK
Sequence of muscarinic toxin MT3 (P81031 whole entry): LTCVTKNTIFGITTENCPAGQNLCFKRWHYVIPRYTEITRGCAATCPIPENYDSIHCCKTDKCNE
Sequence of muscarinic toxin MT7 (Q8QGR0 22-86): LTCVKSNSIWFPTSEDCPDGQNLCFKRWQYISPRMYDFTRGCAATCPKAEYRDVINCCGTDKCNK
Sequence of muscarinic acetylcholine receptor M4 (Homo sapiens) (P08173 whole entry): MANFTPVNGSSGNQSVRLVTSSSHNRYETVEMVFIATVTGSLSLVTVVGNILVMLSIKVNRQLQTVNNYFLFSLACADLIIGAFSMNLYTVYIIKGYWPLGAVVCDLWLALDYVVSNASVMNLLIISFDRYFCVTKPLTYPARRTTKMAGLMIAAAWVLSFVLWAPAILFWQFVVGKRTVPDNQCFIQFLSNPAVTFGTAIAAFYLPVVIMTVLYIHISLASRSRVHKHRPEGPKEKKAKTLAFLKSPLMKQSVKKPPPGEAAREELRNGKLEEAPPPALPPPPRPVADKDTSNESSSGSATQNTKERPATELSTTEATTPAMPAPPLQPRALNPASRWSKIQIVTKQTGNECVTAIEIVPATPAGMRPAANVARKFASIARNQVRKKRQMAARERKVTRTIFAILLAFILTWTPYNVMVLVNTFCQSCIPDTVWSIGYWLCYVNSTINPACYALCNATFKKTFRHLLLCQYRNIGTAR
Sequence of omega-agatoxin Aga-IVA (P30288 whole entry): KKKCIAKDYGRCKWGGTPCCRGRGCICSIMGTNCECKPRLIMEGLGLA
Sequence of lethal factor (Bacillus anthracis) (P15917 34-809): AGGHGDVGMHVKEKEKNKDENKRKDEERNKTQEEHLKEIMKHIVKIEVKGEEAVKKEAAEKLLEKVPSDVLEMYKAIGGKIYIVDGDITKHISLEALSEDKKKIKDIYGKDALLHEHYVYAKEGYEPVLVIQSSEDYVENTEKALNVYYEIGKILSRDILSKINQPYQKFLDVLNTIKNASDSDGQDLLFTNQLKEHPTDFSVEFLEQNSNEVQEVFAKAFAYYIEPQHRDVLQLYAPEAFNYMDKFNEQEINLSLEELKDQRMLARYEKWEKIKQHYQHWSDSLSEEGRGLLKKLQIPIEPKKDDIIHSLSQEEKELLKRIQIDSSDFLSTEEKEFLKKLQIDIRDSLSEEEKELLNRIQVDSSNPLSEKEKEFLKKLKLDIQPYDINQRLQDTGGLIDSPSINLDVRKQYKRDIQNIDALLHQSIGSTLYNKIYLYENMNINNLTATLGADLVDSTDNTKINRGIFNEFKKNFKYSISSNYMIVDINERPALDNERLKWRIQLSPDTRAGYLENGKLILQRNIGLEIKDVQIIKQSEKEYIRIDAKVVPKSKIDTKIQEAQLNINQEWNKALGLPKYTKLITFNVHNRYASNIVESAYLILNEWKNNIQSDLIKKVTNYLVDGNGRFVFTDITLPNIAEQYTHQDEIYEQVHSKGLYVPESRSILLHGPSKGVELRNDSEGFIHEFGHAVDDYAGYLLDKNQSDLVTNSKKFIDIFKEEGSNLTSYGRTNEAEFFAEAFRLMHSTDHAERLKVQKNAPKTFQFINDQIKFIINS

Q: For “muscarinic toxin MT7 (from UniProt Q8QGR0)”, which Ki [1] is on record?
A: The Ki was 0.014 nM.

Q: Which Ki [2] does the source give for “muscarinic toxin MT3 (from UniProt P81031)” here?
A: The Ki was 2 nM.

Q: Which Kd [3] does the source give for “protective antigen PA63 oligomer PA63 (from UniProt P13423)” here?
A: The Kd was 1 nM.

Q: And the Kd [4]?
A: Its Kd is 1 nM.

Q: With “omega-agatoxin Aga-IVA (from UniProt P30288)” as the substance, how does the Kd (P-type calcium channel) read?
A: The Kd was 3 nM.
